According to patent publication US20210261685A1 (Alector, published 2021):

T1: human MerTK endogenously expressed on cells (SK-MEL-5 cells; human macrophages) (human, UniProt Q12866 21-999)
T1 sequence: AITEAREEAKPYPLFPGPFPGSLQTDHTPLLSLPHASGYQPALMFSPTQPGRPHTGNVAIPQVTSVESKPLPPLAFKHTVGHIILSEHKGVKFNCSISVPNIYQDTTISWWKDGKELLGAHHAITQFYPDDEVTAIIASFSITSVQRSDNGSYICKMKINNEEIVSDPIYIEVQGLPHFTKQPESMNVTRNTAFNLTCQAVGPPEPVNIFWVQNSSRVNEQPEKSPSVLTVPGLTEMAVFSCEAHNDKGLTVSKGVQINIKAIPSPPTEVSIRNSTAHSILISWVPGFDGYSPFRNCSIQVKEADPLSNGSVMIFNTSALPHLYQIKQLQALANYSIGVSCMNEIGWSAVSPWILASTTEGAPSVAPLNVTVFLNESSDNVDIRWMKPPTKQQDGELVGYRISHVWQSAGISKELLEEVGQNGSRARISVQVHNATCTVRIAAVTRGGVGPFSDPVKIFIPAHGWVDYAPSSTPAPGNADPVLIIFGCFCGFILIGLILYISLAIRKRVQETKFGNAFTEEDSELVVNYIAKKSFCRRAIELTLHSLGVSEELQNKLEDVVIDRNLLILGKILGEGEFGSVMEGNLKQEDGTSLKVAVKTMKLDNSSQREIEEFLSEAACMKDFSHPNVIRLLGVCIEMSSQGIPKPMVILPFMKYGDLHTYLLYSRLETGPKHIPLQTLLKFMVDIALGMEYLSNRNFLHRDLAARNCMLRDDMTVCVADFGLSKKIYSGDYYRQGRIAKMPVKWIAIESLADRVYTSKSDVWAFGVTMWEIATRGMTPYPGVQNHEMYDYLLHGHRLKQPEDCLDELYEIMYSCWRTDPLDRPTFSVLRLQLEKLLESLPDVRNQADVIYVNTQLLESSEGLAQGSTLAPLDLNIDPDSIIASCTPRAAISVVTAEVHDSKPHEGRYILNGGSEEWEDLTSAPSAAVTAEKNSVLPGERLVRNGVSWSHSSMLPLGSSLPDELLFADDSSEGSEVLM

T2: Recombinant human MerTK human Fc Chimera protein (R&D systems, Cat #391-MR-100) (human, UniProt Q12866 26-499, limits assumed)
T2 construct: Bought; also called recombinant human MerTK protein; MerTK-Fc
T2 sequence: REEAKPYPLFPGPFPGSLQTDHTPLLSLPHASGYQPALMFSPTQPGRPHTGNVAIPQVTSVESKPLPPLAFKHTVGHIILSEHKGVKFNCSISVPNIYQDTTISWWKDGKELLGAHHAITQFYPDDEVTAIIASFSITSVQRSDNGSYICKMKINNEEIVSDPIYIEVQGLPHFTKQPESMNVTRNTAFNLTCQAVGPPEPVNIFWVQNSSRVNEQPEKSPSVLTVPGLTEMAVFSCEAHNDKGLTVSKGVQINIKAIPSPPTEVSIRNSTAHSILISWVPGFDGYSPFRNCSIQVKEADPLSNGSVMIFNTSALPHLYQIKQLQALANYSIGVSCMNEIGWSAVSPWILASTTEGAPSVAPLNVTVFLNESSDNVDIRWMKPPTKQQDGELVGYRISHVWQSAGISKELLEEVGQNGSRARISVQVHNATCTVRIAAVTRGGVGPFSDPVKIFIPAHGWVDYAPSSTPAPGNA


Key:
[1] = target: T1, human MerTK endogenously expressed on …; test: cell-based or functional assay
[2] = target: T1, human MerTK endogenously expressed on …; test: flow cytometry on SK-MEL-5 cells, Prism fit
Method: To determine whether recombinant anti-human MerTK antibodies of the present disclosure bind to human MerTK endogenously expressed on SK-MEL-5 cells and to CHO cells overexpressing mouse MerTK (CHO-muMerTK OE cells), the following experiments were performed. SK-MEL-5 cells and CHO-muMerTK OE cells were plated at 40,000 cells/well. Anti-MerTK antibodies were titrated to a final concentration range of between 66.6 nM to 4 pM and then added to the cells. After 30 min on ice, cells were washed and then stained with APC-conjugated mouse anti-human Kappa antibody (Southern Biotech Cat #9230-11, Birmingham, Ala.) and a viability die (Life Technologies) in the presence of Fc block solution on ice for 30 minutes, and then washed twice with cold FACS buffer (2% FBS in PBS). Cells were fixed with 4% paraformaldehyde in PBS. Stained cells were acquired on a BD FACS Canto II cytometer and the mean fluorescence intensity (MFI) was calculated with FlowJo software and K value was calculated with Prism software. […] A lower Kd value reflects higher binding of antibody to cells.

[3] = target: T2, Recombinant human MerTK human Fc …; test: competition ELISA, His-Gas6 on captured MerTK-Fc
Method: Rabbit anti-human IgG polyclonal antibody (Jackson ImmunoResearch, Cat #309-005-008) was captured to a high-protein binding plate at 2 μg/ml 4° C. overnight. After washing with 0.05% Tween20 in PBS three times, 5% BSA in PBS was added for 1 hour. Recombinant human MerTK human Fc Chimera protein (R&D systems, Cat #391-MR-100) was added at 2 μg/ml for 1 hour and the plates were then washed. Anti-MerTK antibodies were titrated to final concentration range of between 66.6 nM to 4 pM and then 40 μl of serially diluted antibody and 40 μl of His tag-conjugated recombinant Gas6 protein (R&D systems, Cat #885-GSB-050) at 3 μg/ml or His tag-conjugated recombinant ProS protein (R&D systems, Cat #9489-PS-100) at 20 μg/ml. After a further incubation for 1 hour, plates were washed and incubated for 1 hour with HRP-conjugated anti-6×His tag antibody (Abcam, Cat #ab1187). Plates were then washed and an HRP substrate (TMB) was used to develop the plates. After sufficient color change was observed, the reaction was stopped by adding 50 μl 2N H₂SO₄ and the OD was measured using a spectrophotometer (BioTek).
From these experiments, IC50 values [nM] were determined using OD450 values obtained from the dose-response curves analyzed with Prism software. Table 14 and Table 15 show IC50 values determined for anti-MerTK antibody blocking of Gas6 ligand binding and ProS ligand binding to MerTK. […] Dashes indicate lack of significant blocking; “n.a.” indicates data not available.

[4] = target: T2, Recombinant human MerTK human Fc …; test: competition ELISA, His-ProS on captured MerTK-Fc
How it was run: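 Blocking IC50 (nM) comes from OD450 curves after TMB development of bound His-tagged ligand detected by HRP-anti-His. Ligand (His-Gas6 at 3 μg/ml, or His-ProS at 20 μg/ml) and titrated antibody (66.6 nM to 4 pM final) were incubated 1 h on MerTK-Fc (2 μg/ml) held by an anti-human IgG capture antibody.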

Row | Binder | Gas6-mediated pAKT activity, average IC50, human M2c macrophages [1] | Kd [2] [nM] | IC50 [3] [nM] | IC50 [4] [nM]
1 | MTK-17 (antibody, human IgG1, V domains shown) VH: QIQLVQSGPELKKPGETVKISCKASGYTFTNFGMNWVKQAPGKGLKWMGWINTYTGEPTYADDFKGRFAFSLETSASTAYLQINNLKNEDTATYFCSRGAVLRAGAMDCWGQGTSVTVSS VL: DIQMTQSSSYLSVSLGGRVTITCKASDHINNWLAWYQQKPGNAPRLLISGATSLETGVPSRFSGSGSGKDYTLSITSLQTEDVATYYCQQYWSTPRTFGGGTKLEIK | 3.42 nM | 12.7 | 14.5 | 8.35
2 | MTK-20 (antibody, human IgG1, V domains shown) VH: QIQLVQSGPELKKPGETVKISCKASGYTFTNYGMTWVKQAPGKGLKWMGWINTYTGEPTYADDFKGRFALSLETSASTAYLQINNLKNEDTATYFCARGGGRLGLRPLDYWGQGTTLTVSS VL: DIQMTQTTSSLSASLGDRVTISCRASQDINNYLNWYQQKPDGTVKLLIYYTSRLHSGVPSRFSGSGSGTDYSLTISNLEQEDIATYFCQQGNTLPWTFGGGTKLEIK | 1.48 nM | 0.11 | 4.96 | 5.16
3 | MTK-18 (antibody, human IgG1, V domains shown) VH: QIQLVQSGPELKKPGETVKISCKASGYTFTHYGMTWVKQAPGKGLKWMGWINTYTGEPTYADDFKGRFAFSLETSASTAYLQINNLKNEDTATYFCARGGGQLGLRPLDYWGQGTTLTVSS VL: DIQMTQTTSSLSASLGDRVTFSCRASQAISNYLNWYQQKPDGTVKLLIYYTSRLHSGVPSRFSGSGSGTDYSLTISNLEQEDIATYFCQQGNTLPWTFGGGTKLEIK | 1.3 nM | 0.38 | 4.22 | 4.76
4 | MTK-03 (antibody, human IgG1, V domains shown) VH: DVQLQESGPGLVKPSQSLSLTCSVTGYSITSGYYWNWIRQFPGNTLEWMGYMSFDGDNKFNPSLKNRISITRDTSKNQFFLRLNSVTTEDTATYYCARGGYNYGSTEANWGQGTLVTVSA VL: QIVLTQSPAIMSAFPGEKVTITCSASSSVNYMHWFQQKPGTSPKLWIYSTSNLASGVPARFSGSGSGTSYSLTISRMEAEDAATYYCQQRSSYPFTFGSGTKLEIK | 19 pM | 2.64 | 8.53 | 3.65
5 | MTK-07 (antibody, human IgG1, V domains shown) VH: DVQLQESGPGLVKPSQSLSLTCSVTGYSITSGYYWNWIRQFPGNTLEWMGYMSFDGDNKFNPSLKNRISITRDTSKNQFFLRLNSVTTEDTATYYCARGGYNYGSTEANWGQGTLVTVST VL: QIVLTQSPAIMSAFPGEKVTITCSASSSVTYMHWFQQKPGTSPKLWIFSTSNLASGVPARFSGSGSGTSYSLTISRMEAEDAATYYCQQRSSYPFTFGSGTKLEIK | 0.371 nM | 3.21 | 7.97 | 3.27
6 | MTK-11 (antibody, human IgG1, V domains shown) VH: QVQLKQSGPGLVQPSQSLSITCTVSGFSLTDYGVHWVRQSPGKGLEWLGVIWSSGTTDYNEAFISRLSISKDNSKSHVFFKMNSLQAIDTAIYYCARKGHDPYAMDYWGQGTSVTVSS VL: QIVLTQSPAIMSASLGERVTMTCTASSSISSSYFHWYQQKPGSSPKLWIYSTSNLPSGVPARFSGSGSGTSYSLTISSMEAEDAATYYCHQYYRSPLTFGAGTKLELK | 2.63 nM | 3.54 | – | 24.2
7 | MTK-12 (antibody, human IgG1, V domains shown) VH: QVQLQQSGPQLVRPGASVKISCKASGYSFTSHWMHWVKQRPGQGLEWIGMIDPSDGESRLNQKFKDKATLTVDKSSSTAYMQLSSPTFEDSAVYYCARGIYYYGITYAMDYWGQGTSVTVSS VL: QIVLTQSPAIMSASPGEKVTMTCSASSSVSYMYWYQQKPRSSPRLLIYDTSNLASGVPVRFSGSGSGTSYSLTISRMEAEDAATYYCQQWSSYPLTFGAGTKLELK | 1.28 nM | 0.009 | 26 | 3.36
8 | MTK-15 (antibody, human IgG1, V domains shown) VH: QIQLVQSGPELKKPGETVKISCKASGYTFTNYGVHWVKQAPGKGLKWMGWINTYTGEPTYADDFKGRFAFSLETSASTAYLQINNLKNEDMATYFCARGNRYAYMDYWGQGTSVTVSS VL: QIVLSQSPAILSASPGEKVTMTCRASSSVSYMHWYQQKSGSSPKPWIYATSNLASGVPARFSGSGSGTSYSLTISRVEAEDAATYYCQQWSSNPRTFGGGTKLEIK | 2.8 nM | 0.19 | – | 4.2
9 | MTK-16 (antibody, human IgG1, V domains shown) VH: LIQLVQSGPELKKPGETVKISCKASGYTFTNHGMNWVKQDPGKGLKWMGWINTYTGEPTYADDFKGRFVFSMETSASAAFLQINNLKNEDTATYFCARKGVTAARYFDYWGQGTTLTVSS VL: DIVMTQSPKFMSTSVGDRVSITCKASQNVRTAVAWYKKKPGQSPKALINLASNRHTGVPDRFTGSGSGTDFTLTISNVQSEDLADYFCLQHWNYPLTFGGGTKLEIK | 7.74 nM | 1.66 | 6.32 | 8.59
